Test results published in US20190119357A1, “MESSENGER RIBONUCLEIC ACIDS FOR THE PRODUCTION OF INTRACELLULAR BINDING POLYPEPTIDES AND METHODS OF USE THEREOF” (ModernaTX, Inc., priority 2015, published 2019).
“Also recorded” adds a separate entry of the source.

B1: SQT-Bad-BH3: mRNA (SEQ ID NO: 51, FLAG) encoding SQT scaffold with Bad BH3 domain in N-terminus (nucleic acid)
chain: ATGATCCCAAGAAACCTGTGGGCTGCACAACGCTACGGAAGAGAACTGCGCCGGATGAGCGACGAATTTGTGGACTCGTTCAAGAAGGGGGGACTCTCAGAAGCGAAGCCTGCCACCCCCGAAATCCAGGAAATCGTCGACAAGGTCAAGCCGCAGCTTGAGGAAAAGACCAACGAGACTTACGGAAAACTGGAGGCCGTGCAGTATAAGACCCAAGTGTTGGCCTCCACCAACTACTACATTAAGGTCCGCGCCGGCGATAACAAGTACATGCACCTGAAGGTGTTCAATGGTCCTCCGGGACAGAACGCGGACAGGGTGCTGACTGGCTACCAAGTGGACAAGAACAAGGACGACGAGCTGACGGGCTTCGACTACAAGGATGATGATGACAAA
modifications: FLAG tag; Synthetic SQT-BAD-BH3 mRNA sequence with FLAG epitope tag
B2: SQT-Noxa-BH3: mRNA (SEQ ID NO: 52, FLAG) encoding SQT scaffold with Noxa BH3 domain in N-terminus (nucleic acid)
chain: ATGATCCCAAGACCCGCAGAGCTCGAAGTGGAATGCGCTACCCAACTTAGACGGTTCGGAGACAAGCTGAACTTTCGGCAGAAGCTCCTGGGACTCTCAGAAGCGAAGCCTGCCACCCCCGAAATCCAGGAAATCGTCGACAAGGTCAAGCCGCAGCTTGAGGAAAAGACCAACGAGACTTACGGAAAACTGGAGGCCGTGCAGTATAAGACCCAAGTGTTGGCCTCCACCAACTACTACATTAAGGTCCGCGCCGGCGATAACAAGTACATGCACCTGAAGGTGTTCAATGGTCCTCCGGGACAGAACGCGGACAGGGTGCTGACTGGCTACCAAGTGGACAAGAACAAGGACGACGAGCTGACGGGCTTCGACTACAAGGATGATGATGACAAA
modifications: FLAG tag; Synthetic SQT-NoxA-BH3 mRNA sequence with FLAG epitope tag
B3: Bcl-w (C29S/A128E) BH3 Trap.n9V5: Bcl-2-like trap mRNA, SEQ ID NO: 81, V5 tag (nucleic acid)
chain: ATGATTCCCAATCCGCTCCTCGGGCTTGACGCTACACCAGCCAGTGCACCAGACACGAGGGCGCTGGTTGCCGATTTCGTGGGATACAAGCTCAGGCAAAAAGGGTACGTAAGCGGTGCCGGGCCCGGGGAGGGACCGGCTGCCGATCCACTCCACCAGGCTATGAGGGCAGCTGGGGACGAATTCGAAACACGCTTTCGGCGGACTTTCTCCGACCTTGCCGCACAGCTACACGTCACTCCCGGGAGCGCTCAGCAGCGCTTCACGCAGGTCTCAGACGAATTGTTCCAAGGCGGCCCTAATTGGGGAAGATTGGTGGCCTTCTTCGTGTTTGGGGCAGCACTGTGCGCTGAGTCCGTGAACAAAGAAATGGAACCCCTCGTTGGCCAAGTCCAAGAATGGATGGTGGAATATCTGGAAACACAGTTAGCGGATTGGATTCACTCATCTGGGGGCTGGGCTGAGTTTACAGCACTGTACGGGGACGGTGCCCTAGAGGAGGCCCGAAGACTGAGGGAAGGCAACTGGGCCAGCGTTCGCACGGTGTTGACCGGCGCGGTTGCTTTGGGCGCTTTGGTTACCGTCGGCGCATTCTTCGCCAGTAAA
modifications: V5 tag; Synthetic Bcl-w (C29S/A128E)BH3 mRNA sequence with V5 epitope tag
B4: Bcl-xL del.C24 BH3 Trap.cFLAG: Bcl-2-like trap mRNA, SEQ ID NO: 83, FLAG tag (nucleic acid)
chain: ATGTCCCAGAGCAACAGGGAACTCGTAGTCGATTTCTTGTCCTACAAGCTCAGTCAGAAGGGCTACTCTTGGTCCCAATTTTCCGACGTGGAAGAAAATCGGACAGAAGCCCCTGAGGGAACCGAGAGTGAGATGGAGACCCCGTCTGCAATCAACGGGAACCCTTCTTGGCACTTGGCCGACAGTCCCGCTGTGAATGGCGCCACAGGTCACAGTTCATCACTCGACGCTAGAGAAGTTATACCCATGGCAGCAGTCAAGCAAGCTCTGCGGGAGGCCGGCGACGAGTTCGAACTTCGGTACCGCCGAGCTTTTTCTGACCTGACTAGTCAGCTGCATATTACTCCGGGCACTGCGTACCAGTCGTTCGAACAGGTGGTTAATGAACTATTTCGAGACGGCGTGAATTGGGGCAGAATTGTAGCCTTTTTCTCCTTTGGAGGTGCACTGTGTGTCGAGAGCGTCGATAAGGAAATGCAGGTGTTGGTGAGCCGTATCGCGGCCTGGATGGCCACGTATCTGAACGACCATTTGGAACCATGGATCCAAGAAAACGGGGGTTGGGATACTTTCGTGGAGTTATATGGCAACAATGCTGCAGCGGAAAGTCGCAAGGGCCAGGAACGAGACTATAAAGATGACGACGATAAA
modifications: FLAG tag; Synthetic Bcl-xL del.C24 mRNA sequence with FLAG epitope tag

What was measured:
[1] = system: HeLa cells; experiment: PARP-1 cleavage by SDS-PAGE and Western blotting after transfection of mRNAs encoding SQT-BH3 constructs; format: cell-based; conditions: 4 hours after transfection
Source text: The cleavage of PARP-1 was detected by the appearance of a faster-migrating band and concomitant loss of the full-length band by SDS-PAGE and Western blotting. Western blotting with anti-actin antibodies served as a loading control.

[2] = target: T1, BCL-XL (Homo sapiens, UniProt Q07817); experiment: Co-immunoprecipitation after mRNA transfection; format: binding; conditions: within two hours after mRNA transfection
T1 construct: endogenous in cells; host or cells: cells transfected with SQT-BH3 mRNA (HeLa by context)

[3] = target: T2, BCL-2 (Homo sapiens, UniProt P10415); experiment: Co-immunoprecipitation after mRNA transfection; format: binding; conditions: within two hours after mRNA transfection
T2 construct: endogenous in cells; host or cells: cells transfected with SQT-BH3 mRNA (HeLa by context)

[4] = system: HeLa cells; experiment: Long-term live cell imaging of GFP-positive cells after mRNA transfection; format: cell-based
[5] = system: Hep3B cells; experiment: Cell death by YOYO-3 with MC3-formulated LNPs; format: cell-based; conditions: relatively high concentration
Method: The efficacy of mRNAs encoding SQT-BH3 constructs in inducing cell death was tested both in hepatocellular carcinoma cell lines as well as in primary hepatocytes using lipid nanoparticle (LNP)-formulated constructs. Hep3B cells were treated with varying doses (0.78 ng to 50 ng) of MC3-formulated LNPs in the presence of YOYO-3 (Life Technologies), a DNA dye that is taken up preferentially by dead cells that is used to measure the extent of cell death. MC3 lipid nanoparticles included MC3 50%, DSPC 10%, Cholesterol 38.5%, PEG-DMG 1.5%, N:P ˜5.5.

[6] = system: primary hepatocytes; experiment: Apoptosis induction by MC3 LNP-formulated mRNAs in primary hepatocytes cultured in vitro; format: cell-based; conditions: LNPs
[7] = system: Hep3B cells; experiment: Sorafenib combination, YOYO-3 apoptosis on IncuCyte ZOOM; format: cell-based
Method: To determine the effect of SQT-BH3 constructs in combination with the protein tyrosine kinase inhibitor Sorafenib on liver cells, 20,000 Hep3B cells/well in a 96 well plate were treated with increasing amounts of sorafenib tosylate (Selleck Chemicals) and transfected with LNPs containing SQT-PUMA-BH3 (68 pM) or SQT-Bad-BH3 (550pM).

[8] = system: primary mouse hepatocytes; experiment: Sorafenib combination in primary mouse hepatocytes; format: cell-based; conditions: SQT-PUMA-BH3 205 pM or 1100 pM, SQT-Bad-BH3 549 pM or 1100 pM, sorafenib 0-10 uM
Method: Similar combination experiments were performed with primary mouse hepatocytes, treated with SQT-PUMA-BH3 (205 pM or 1100 pM) or SQT-Bad-BH3 (549 pM or 1100 pM) in combination with sorafenib (0-10 μM). […] Thus, normal primary liver cells are spared by the combination treatment, indicating the combination treatment can selectively kill liver cancer cells over normal liver cells.

[9] = system: Hep3B cells; experiment: SQT-BH3 in combination with siMCL1 or sorafenib, YOYO-3; format: cell-based; conditions: 10 uM sorafenib tosylate, 24 hours after treatment
[10] = system: primary hepatocytes; conditions: 10uM sorafenib tosylate, 24 hours after treatment
Method: Controls were an empty SQT construct (“SQT-dummy”), a non-targeting siRNA and PBS. For treatment of Hep3B cells, 20,000 Hep3B cells/well per plated in 96-well plates. At Day 1, some wells were transfected with siMCL1 (Dharmacon, ON-TARGETplus Human MCL1 (4170) siRNA-SMARTpool, # L-004501-00-0005) or non-targeting siRNA (ON-TARGETplus Non-targeting Control Pool, # D-001810-10-05). […] 24 hours after treatment, YOYO®-3 iodide (Life Technologies) viability dye was added to each well and cell death was measured on an IncuCyte ZOOM® using YOYO-3 fluorescence as a readout (=“Apoptosis”). For treatment of primary hepatocytes, 18,000 mouse hepatocytes (Gibco) were seeded in each well of a 96-well plate. At Day 1, some wells were transfected with siMCL1 (Dharmacon, SMARTpool: ON-TARGETplus Mc11 siRNA, # L-062229-00-0005) or non-targeting siRNA (ON-TARGETplus Non-targeting Control Pool, # D-001810-10-05). […] 24 hours after treatment, Caspase 3/7 reagent (EssenBio) apoptosis dye was added to each well and cell death was measured on an IncuCyte ZOOM® using the caspase 3/7 reagent fluorescence as a readout (=“Apoptosis”).

[11] = target: T3, MCL-1 (Homo sapiens, UniProt Q07820); experiment: Co-immunoprecipitation in lysates of transfected HeLa cells; format: binding; conditions: lysates of HeLa cells transfected with mRNAs
T3 construct: performed in lysates of HeLa cells transfected with mRNAs encoding SQT-BH3 constructs; endogenous in cells; host or cells: HeLa

[12] = system: Hep3B cells; experiment: Co-transfection of SQT-Bim-BH3 mRNA with Bcl-2-like Trap mRNAs, % phase confluence; format: cell-based
Source text: C32, Bcl-xL del.C24, Mcl-1 del.N/C(2010), and Bcl-xL (D61A) del.C24.

T1 sequence (Q07817 whole entry): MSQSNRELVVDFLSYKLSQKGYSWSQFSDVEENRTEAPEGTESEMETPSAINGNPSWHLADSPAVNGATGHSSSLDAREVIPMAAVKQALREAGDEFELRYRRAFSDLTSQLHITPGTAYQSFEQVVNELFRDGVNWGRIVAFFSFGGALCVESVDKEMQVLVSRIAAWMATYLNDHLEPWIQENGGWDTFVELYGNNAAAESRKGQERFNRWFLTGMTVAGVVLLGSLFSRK
T2 sequence (P10415 whole entry): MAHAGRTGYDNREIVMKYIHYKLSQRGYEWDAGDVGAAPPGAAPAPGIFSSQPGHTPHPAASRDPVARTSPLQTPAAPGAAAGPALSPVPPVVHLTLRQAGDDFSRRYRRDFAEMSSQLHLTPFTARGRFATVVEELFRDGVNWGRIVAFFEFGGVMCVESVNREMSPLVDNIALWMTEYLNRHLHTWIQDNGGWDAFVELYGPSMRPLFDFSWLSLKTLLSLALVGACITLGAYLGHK
T3 sequence (Q07820 whole entry): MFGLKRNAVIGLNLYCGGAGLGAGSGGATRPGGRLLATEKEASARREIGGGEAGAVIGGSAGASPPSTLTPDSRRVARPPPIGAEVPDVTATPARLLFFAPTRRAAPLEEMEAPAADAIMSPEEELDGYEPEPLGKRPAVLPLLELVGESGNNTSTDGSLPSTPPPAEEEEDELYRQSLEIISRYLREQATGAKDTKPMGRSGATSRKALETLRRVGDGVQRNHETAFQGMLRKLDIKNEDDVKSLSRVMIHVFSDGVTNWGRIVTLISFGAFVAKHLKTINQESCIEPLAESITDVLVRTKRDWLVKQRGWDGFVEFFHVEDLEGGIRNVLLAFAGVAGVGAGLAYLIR

| Molecule | PARP-1 cleavage, extent [1] | cell-killing activity [4] | apoptosis and cell death (YOYO-3) [5] | PARP-1 cleavage [6] | fate of SQT-BimBH3-transfected cells co-transfected with Trap construct [12] | other results |
| --- | --- | --- | --- | --- | --- | --- |
| B1 | also induced PARP-1 cleavage, although to a lesser extent than SQT-PUMA-BH3 or SQT-Bim-BH3 | did not show cell-killing activity | behaved similar to the empty MC3 LNP control and mRNAs encoding SQT | did not |  | interaction with BCL-XL by co-immunoprecipitation [2]: also able to co-immunoprecipitate BCL-XL and BCL-2, although to a lesser extent than SQT-PUMA-BH3 and SQT-Bim-BH3; interaction with BCL-2 by co-immunoprecipitation [3]: also able to co-immunoprecipitate BCL-XL and BCL-2, although to a lesser extent than SQT-PUMA-BH3 and SQT-Bim-BH3; nature of combination effect with sorafenib ([7]; SQT-PUMA-BH3 68 pM or SQT-Bad-BH3 550pM): synergistic effect; apoptosis (YOYO-3), combination with sorafenib vs sorafenib alone ([7]; SQT-PUMA-BH3 68 pM or SQT-Bad-BH3 550pM in LNPs, increasing sorafenib tosylate): increased apoptosis of the liver cells as compared to treatment with sorafenib alone; apoptosis in combination with sorafenib [8]: neither SQT-BH3 construct, in combination with sorafenib, caused apoptosis; apoptosis (YOYO-3) in combination with either siMCL1 or sorafenib [9]: led to a marked increase in apoptosis as compared to treatment with the SQT-BH3 construct in combination with non-targeting siRNA or PBS; also recorded: synergistic pro-apoptotic effect; apoptosis (caspase 3/7) in combination with siMCL1, sorafenib or controls [10]: did not lead to increased apoptosis as compared to treatment with the control SQT-dummy construct |
| B2 | also induced PARP-1 cleavage, although to a lesser extent than SQT-PUMA-BH3 or SQT-Bim-BH3 | did not show cell-killing activity | behaved similar to the empty MC3 LNP control and mRNAs encoding SQT | did not |  | co-immunoprecipitation of MCL-1 [11]: able to co-immunoprecipitate |
| B3 |  |  |  |  | remained alive | inhibition of SQT-BH3-induced cell death (% phase confluence) ([12]; co-transfected with SQT-Bim-BH3 mRNA, ratio Trap construct:SQT-BH3 construct 1:2, 24 hour period): most potent inhibitor of SQT-BH3-induced cell death; also recorded: to a substantially greater degree than Bcl-xL (D61A) del.C24 BH3 Trap.cFLAG |
| B4 |  |  |  |  | exhibited substantial apoptosis and cell death |  |
